Broadly, the Km is the substrate concentration at which the rate is half of its maximum. What is called Vmax is the rate approached at saturating substrate.

In the series the test system is T1, N=C(N)NCCC[C@H](NC(=O)[C@H](Cc1ccccc1)NC(=O)[C@@H]1CCCN1)C(=O)NCc1ccccc1.
T1 construct: dialyzed or gel-filtered human urine in the general A1 assay
The series can be described thus: Km and Vmax of substrates with purified human urinary kallikrein (Lineweaver-Burk double reciprocal plot). Format: biochemical. The following applies: other: 62.5 ng purified enzyme, 0.05 M tris-HCl pH 9.5, 37° C., 15 minutes. The procedure:
The double reciprocal plot method of H. Lineweaver and D. Burk (J.Am.Chem.Soc. 56, 658 (1934)) was used to estimate Km and Vmax for these substrates. Purified human urinary kallikrein prepared as described by Oza, N. B. and Ryan, J., supra, was used in this study. Reactions were conducted at 37° C. for 15 minutes with 62.5 ng of enzyme and the indicated amount of substrate, in 0.05 M tris-HCl pH 9.5. Reactions were terminated by the addition of a nine-fold excess of 0.1 N NaOH. The ^3 H-labeled product was separated from substrate by extraction with an equal volume (1 ml) of toluene. A 0.5 ml aliquot of the toluene phase was transferred to a scintillation vial containing a toluene-based scintillation fluid and counted. Results for H-ProPheArg-[^3 H]-benzylamide are shown in FIG. 1, and for H-ProPheArg-[^3 H]anilide in FIG. 2. The units of l/v were nmol^-1 min. Units of l/S were μmole^-1.liter.

With human urinary kallikrein (Homo sapiens), the Km amounted to 3.0 µM and the Vmax was determined as 0.88 mmol/min/mg.

The values are drawn from patent US4327178A, “Urinary kallikrein assay: specific substrates and assay method” (University of Miami, priority 1981, dated 1982).
